Laboratory results published in patent US20200369755A1 (PROTHENA BIOSCIENCES, published 2020).
Where no end group is shown, it is not given here.

Legend:
Experiment in all cases: peptide ELISA, biotinylated peptide on streptavidin plate; background-subtracted absorbance; positive from 0.2
325-339 = target: T1, 325-339 (also: biotinylated, site not given here)
T1 construct: also called tau peptide 325-339 (4R0N numbering)
T1 peptide: KAKTDHGAEIVYKSP
Experimental: (§1) Additional peptides were used to model potential post-translational modifications of the C- and N-terminal ends of the protein.
(§2) Biotinylated peptides were bound to separate wells of a streptavidin-coated ELISA plate. The plate was blocked and treated with murine 3D6, followed by incubation with a horseradish peroxidase-conjugated anti-mouse antibody. After thorough washing, OPD was applied to the plate and allowed to develop. The plate was read at 450 nm absorbance. Background subtraction was performed with absorbance values from wells containing no primary antibody, and a threshold for positive binding was set to 0.2 absorbance units. […] (FIG. 1)

1-15* (free N-term) = target: T2, 1-15* (free N-term) (also: biotinylated (site not given here))
T2 construct: also called tau peptide 1-15 (4R0N numbering), free N-terminus
T2 peptide: H-MAEPRQEFEVMEDHA
Experimental: as §1, §2

181-195 = target: T3, 181-195 (also: biotinylated, site not given here)
T3 peptide: AKSRLQTAPVPMPDL
Experimental: as §1, §2

28-42 = target: T4, 28-42 (also: biotinylated, site not given here)
T4 construct: also called tau peptide 28-42 (4R0N numbering)
T4 peptide: GYTMHQDQEGDTDAG
Experimental: as §1, §2

369-383 (free C-term) = target: T5, 369-383 (free C-term) (also: biotinylated, site not given here)
T5 peptide: TLADEVSASLAKQGL-OH
Experimental: as §1, §2

118-132 = target: T6, 118-132 (also: biotinylated, site not given here)
T6 peptide: PPAPKTPPSSGEPPK
Experimental: as §1, §2

127-141 = target: T7, 127-141 (also: biotinylated, site not given here)
T7 peptide: SGEPPKSGDRSGYSS
Experimental: as §1, §2

208-222 = target: T8, 208-222 (also: biotinylated, site not given here)
T8 construct: also called tau peptide 208-222 (4R0N numbering)
T8 peptide: LKHQPGGGKVQIINK
Experimental: as §1, §2

100-114 = target: T9, 100-114 (also: biotinylated (site not given here))
T9 construct: also called tau peptide 100-114 (4R0N numbering)
T9 peptide: APPGQKGQANATRIP
Experimental: as §1, §2

244-258 = target: T10, 244-258 (also: biotinylated, site not given here)
T10 peptide: GGGSVQIVYKPVDLS
Experimental: as §1, §2

298-312 = target: T11, 298-312 (also: biotinylated, site not given here)
T11 construct: also called tau peptide 298-312 (4R0N numbering)
T11 peptide: SLDNITHVPGGGNKK
Experimental: as §1, §2

316-330 = target: T12, 316-330 (also: biotinylated, site not given here)
T12 construct: also called tau peptide 316-330 (4R0N numbering)
T12 peptide: HKLTFRENAKAKTDH
Experimental: as §1, §2

82-96 = target: T13, 82-96 (also: biotinylated, site not given here)
T13 construct: also called tau peptide 82-96 (4R0N numbering)
T13 peptide: KKAKGADGKTKIATP
Experimental: as §1, §2

172-186 = target: T14, 172-186 (also: biotinylated, site not given here)
T14 construct: also called tau peptide 172-186 (4R0N numbering)
T14 peptide: RTPPKSPSSAKSRLQ
Experimental: as §1, §2

136-150 = target: T15, 136-150 (also: biotinylated, site not given here)
T15 construct: also called tau peptide 136-150 (4R0N numbering)
T15 peptide: RSGYSSPGSPGTPGS
Experimental: as §1, §2

109-123 = target: T16, 109-123 (also: biotinylated, site not given here)
T16 construct: also called tau peptide 109-123 (4R0N numbering)
T16 peptide: NATRIPAKTPPAPKT
Experimental: as §1, §2

163-177 = target: T17, 163-177 (also: biotinylated, site not given here)
T17 peptide: REPKKVAVVRTPPKS
Experimental: as §1, §2

334-348 = target: T18, 334-348 (also: biotinylated, site not given here)
T18 construct: also called tau peptide 334-348 (4R0N numbering)
T18 peptide: IVYKSPVVSGDTSPR
Experimental: as §1, §2

280-294 = target: T19, 280-294 (also: biotinylated, site not given here)
T19 construct: also called tau peptide 280-294 (4R0N numbering)
T19 peptide: EVKSEKLDFKDRVQS
Experimental: as §1, §2

361-375 = target: T20, 361-375 (also: biotinylated, site not given here)
T20 peptide: MVDSPQLATLADEVS
Experimental: as §1, §2

73-87 = target: T21, 73-87 (also: biotinylated, site not given here)
T21 construct: also called tau peptide 73-87 (4R0N numbering)
T21 peptide: SKDGTGSDDKKAKGA
Experimental: as §1, §2

Measured: binding result

B1: murine 3D6 monoclonal antibody (antibody, IgG1, V domains shown)
VH: EVQLQQSGADLVRPGALVKLSCKASGFNIKDYYLHWVRQRPEQGLEWIGWIDPENGDTVYDPKFQGKATITADTSSNTAYLQLGSLTSEDTAVYFCSTLDFWGQGTTLTVSS
VL: not shown
notes: Hybridoma-derived mouse antibody; also called m3D6; mouse 3D6
no binding: 325-339 | 1-15* (free N-term) | 181-195 | 28-42 | 369-383 (free C-term) | 118-132 | 127-141 | 208-222 | 100-114 | 244-258 | 298-312 | 316-330 | 82-96 | 172-186 | 136-150 | 109-123 | 163-177 | 334-348 | 280-294 | 361-375 | 73-87
